The results in this text go back to PMC9400090, “Cyclin-dependent kinase 1 depolymerizes nuclear lamin filaments by disrupting the head-to-tail interaction of the lamin central rod domain” (The Journal of Biological Chemistry, 2022).

First the molecules themselves.
B2: GST-fused lamin 250 to 400 fragment (human lamin A/C residues 250-400) (domain or fragment, UniProt P02545 250-400, looked up)
chain: AQHEDQVEQYKKELEKTYSAKLDNARQSAERNSNLVGAAHEELQQSRIRIDSLSAQLSQLQKQLAAKEAKLRDLEDSLARERDTSRRLLAEKEREMAEMRARMQQQLDEYQELLDIKLALDMEIHAYRKLLEGEEERLRLSPSPTSQRSRG
notes: human lamin A/C, residues 250-400: most of coil 2 (242-385) and a C-terminal flanking region (386-400); also called GST-lamin coil 250-400; lamin C-terminal 250 to 400 fragment; source: E. coli, purified (glutathione-agarose, HiTrap Q, desalting); not shown: GST, N-terminal, kept

For series [1], the target named is lamin A/C 250-400 (UniProt P02545). The series can be described thus: GST pull-down, SDS-PAGE. Particulars: reference: wild type, CDK1 treated.
Series [2] concerns the molecule itself. Kind of series: cross-linking; disulfide bond between Cys146 of two coiled-coil dimers as read-out of the A11 tetramer; Phos-tag SDS-PAGE with nonreducing loading dye.
For series [3], the target named is T1, L59R mutant lamin 1 to 300 fragment (human, UniProt P02545 1-300, L59R).
T1 construct: lamin A/C, residues 1-300, with the genetic (laminopathy) mutation L59R; also called L59R-harboring lamin 1 to 300; L59R lamin 1 to 300
T1 sequence (looked up): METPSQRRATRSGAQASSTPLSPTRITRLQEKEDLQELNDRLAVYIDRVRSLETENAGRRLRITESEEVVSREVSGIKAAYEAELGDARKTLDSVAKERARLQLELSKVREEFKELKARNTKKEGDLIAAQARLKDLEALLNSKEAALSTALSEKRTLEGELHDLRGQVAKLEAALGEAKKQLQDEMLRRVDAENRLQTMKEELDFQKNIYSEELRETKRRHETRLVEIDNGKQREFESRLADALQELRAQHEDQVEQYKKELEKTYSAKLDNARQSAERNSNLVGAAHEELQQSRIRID
Kind of series: pull-down; GST-fused coil 2C fragment (5 μM) on GSH-agarose resin with lamin N-terminal fragments (20 μM); 20 mM Tris-HCl pH 7.5, 50 mM NaCl, 1 h at room temperature; eluted with 20 mM GSH; SDS-PAGE or Phos-tag SDS-PAGE. The following applies: both partners purified.

The target of series [4] is T2, WT lamin 1 to 300 fragment (lamin A/C residues 1-300) (human, UniProt P02545 1-300).
T2 construct: lamin A/C, residues 1-300 (head region 1-27 and part of the central rod domain); The abstract says purified proteins were used; also called lamin 1-300; lamin N-terminal 1 to 300 fragment
T2 sequence (looked up): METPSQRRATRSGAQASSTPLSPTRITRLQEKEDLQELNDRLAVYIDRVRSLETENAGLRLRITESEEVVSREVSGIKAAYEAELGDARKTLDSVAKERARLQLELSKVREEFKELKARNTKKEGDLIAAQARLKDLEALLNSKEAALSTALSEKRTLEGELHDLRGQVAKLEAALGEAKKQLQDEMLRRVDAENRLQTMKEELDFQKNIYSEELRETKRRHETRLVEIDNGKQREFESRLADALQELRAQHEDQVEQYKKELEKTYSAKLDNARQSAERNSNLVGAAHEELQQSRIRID
The series is described as above. Particulars: both partners purified.

The target of series [5] is B2. Described as above. The following applies: both partners purified.

For the molecule “lamin A/C 1-125 (from UniProt P02545) T19A, CDK1 treated”, the “binding against the reference” value in series [1] (sites T19) is on record as “stronger”. For the molecule “lamin A/C 1-125 (from UniProt P02545) S22A, CDK1 treated”, the “binding against the reference” value in series [1] (sites S22) is given as “stronger”.

B1: A146C mutant lamin 1 to 300 fragment (domain or fragment, human, UniProt P02545 1-300, looked up)
chain: METPSQRRATRSGAQASSTPLSPTRITRLQEKEDLQELNDRLAVYIDRVRSLETENAGLRLRITESEEVVSREVSGIKAAYEAELGDARKTLDSVAKERARLQLELSKVREEFKELKARNTKKEGDLIAAQARLKDLEALLNSKECALSTALSEKRTLEGELHDLRGQVAKLEAALGEAKKQLQDEMLRRVDAENRLQTMKEELDFQKNIYSEELRETKRRHETRLVEIDNGKQREFESRLADALQELRAQHEDQVEQYKKELEKTYSAKLDNARQSAERNSNLVGAAHEELQQSRIRID
notes: lamin A/C, residues 1-300; Cys146 forms a disulfide between two coiled-coil dimers within the A11 tetramer; also called lamin 1 to 300 (A146C)
Turning to B1, the binding result in series [2] is on record as “binds”. B2: the binding result in series [3] and in series [4] was “binds” each time.

B3: WT lamin 1 to 125 fragment (human lamin A/C, residues 1-125) (domain or fragment, UniProt P02545 1-125, looked up)
chain: METPSQRRATRSGAQASSTPLSPTRITRLQEKEDLQELNDRLAVYIDRVRSLETENAGLRLRITESEEVVSREVSGIKAAYEAELGDARKTLDSVAKERARLQLELSKVREEFKELKARNTKKEG
As for B3, in series [5], the binding result is “binds”.

B4: lamin 1 to 125 fragment T19A/S22A (domain or fragment, human, UniProt P02545 1-125, looked up)
chain: METPSQRRATRSGAQASSAPLAPTRITRLQEKEDLQELNDRLAVYIDRVRSLETENAGLRLRITESEEVVSREVSGIKAAYEAELGDARKTLDSVAKERARLQLELSKVREEFKELKARNTKKEG
notes: also called double mutant
With B4, the binding result in series [5] is “binds”.

B5: lamin 1 to 125 fragment T19A (domain or fragment, human, UniProt P02545 1-125, looked up)
chain: METPSQRRATRSGAQASSAPLSPTRITRLQEKEDLQELNDRLAVYIDRVRSLETENAGLRLRITESEEVVSREVSGIKAAYEAELGDARKTLDSVAKERARLQLELSKVREEFKELKARNTKKEG
Regarding B5, the binding result in series [5] is listed as “binds”.

B6: lamin 1 to 125 fragment S22A (domain or fragment, human, UniProt P02545 1-125, looked up)
chain: METPSQRRATRSGAQASSTPLAPTRITRLQEKEDLQELNDRLAVYIDRVRSLETENAGLRLRITESEEVVSREVSGIKAAYEAELGDARKTLDSVAKERARLQLELSKVREEFKELKARNTKKEG
Consider B6, for which, in series [5], the binding result is listed as “binds”.

B7: lamin 1 to 125 fragment T19D/S22D (domain or fragment, human, UniProt P02545 1-125, looked up)
chain: METPSQRRATRSGAQASSDPLDPTRITRLQEKEDLQELNDRLAVYIDRVRSLETENAGLRLRITESEEVVSREVSGIKAAYEAELGDARKTLDSVAKERARLQLELSKVREEFKELKARNTKKEG
notes: also called phosphorylation-mimicking dual mutant
Consider B7, for which the binding result in series [5] is recorded as “binds”.
